The source of these data is the supplement of paper PMC9170038.

The subject of this series is MS2 coat protein. Briefly: apparent KD of MS2 coat protein; higher = weaker reporter binding. Conditions: Eterna round: R107. The procedure: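 RNA-MaP round R107: designed RNA switches with theophylline, tryptophan, arginine or FMN aptamers are transcribed on-chip within common flanks. They are titrated with SNAP-549-labelled MS2 coat protein in RNA-MaP buffer (100 mM Tris pH 7.5, 80 mM KCl, 4 mM MgCl2), without ligand or with the indicated ligand. Median apparent KD per design.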

The mark [1] stands for this setting: input ligand: theophylline 20 uM.
Setting [2] is: input ligand: theophylline 2 mM.
[3] abbreviates: input ligand: tryptophan 2.4 mM.

In the case of “AAAAUCCUACCUGAGGAUCACCCGGGUGAAGGAGCGCCCGAAAGGGCAGGUAGGUCGCACCUGAGGAUCACCCUGGUAACCUAAA [ArgEX 12 #DoubleMS2 #OpenEnded #AlternativeMS2]”, the “apparent KD of MS2 coat protein” value runs as follows: (input ligand: arginine 13.2 mM) 41.7 nM; (input ligand: none) 179 nM; under setting [1], 187 nM; under setting [2], 454 nM; under setting [3], 159 nM.
For the sequence “AAAAUCCUACCUGAGGAUCACCCUGGUGAAGGAGCGCCCGAAAGGGCAGGUAGGUCGCACCUGAGGAUCACCCGGGUAACCUAAA [ArgEX 14 #DoubleMS2 #OpenEnded #AlternativeMS2]”, the “apparent KD of MS2 coat protein” value is 78.7 nM (input ligand: arginine 13.2 mM); 170 nM (input ligand: none); 139 nM under setting [1]; 200 nM under setting [2]; 151 nM under setting [3].
Turning to “AAACGUUGCUCAGAUACCAGACAUGAGGAUCACCCAUGUACCAAGGUAACCGAAAGGCAUGUCCCUUGGCAGCUGAGCAACGAAA [MAT - Exclusion Theophlline B - Mod of Eli - D16]”, the “apparent KD of MS2 coat protein” value runs as follows: (input ligand: arginine 13.2 mM) 12.4 nM; under setting [1], 21.4 nM; under setting [3], 12.5 nM.
Regarding “AAACGUUGCUGCGAUACCAGACAUGAGGAUCACCCAUGUACCAAGGUACGAAAAUAACAUGUCCCUUGGCAGCGCAGCAACGAAA [MAT - Exclusion Theophlline B - Mod of Eli - D6]”, the “apparent KD of MS2 coat protein” value worked out at 15.7 nM (input ligand: arginine 13.2 mM), 29.7 nM under setting [1] and 14.5 nM under setting [3].
As to “AAAGCUACGUAAAAUAAAACUACAUGUGAAGGAGCGCGCGAAAGCGCAGGUAGGUCGCACAUGAGGAUCACCCAUGUCGUAGCAA [MAT - Exclusion Arginine A - Mod of Eli - D5]”, the “apparent KD of MS2 coat protein” value by setting is: (input ligand: arginine 13.2 mM) 43.9 nM; (input ligand: none) 63.4 nM; under setting [1], 101 nM; under setting [2], 78.2 nM; under setting [3], 52.2 nM.
With “AAAUAAAUAACUGAUACCAGUCGGACAACAUGAGGAUCACCCAUGUUCACCCAUGUUGAGGACCCUUGGCAGCAGAAAUAUAAAA [test (nupak+vienna]”, the “apparent KD of MS2 coat protein” value runs as follows: (input ligand: arginine 13.2 mM) 41.5 nM; under setting [1], 116 nM; under setting [3], 243 nM.
“AAAUAAAUAACUGAUACCAGUGUACUGACAUGAGGAUCACCCAUGUUGGGUUUGGUUGUACACCCUUGGCAGCAGAAAUAUAAAA [test (nupak]”: the “apparent KD of MS2 coat protein” value came out at 15.4 nM (input ligand: arginine 13.2 mM), 20.6 nM under setting [1] and 15.1 nM under setting [3].
For “AAAUAAAUACAUGAGGAUCACCCAUGUGAAGGAGCGGCCGUUAGGCCAGGUAGGUCGCGCAUGAAUAACUCCGUGCAAAAGCACA [MAT - Exclusion Arginine A - Mod of Eli - D18]”, the “apparent KD of MS2 coat protein” value (input ligand: arginine 13.2 mM) is 9.62 nM; the “apparent KD of MS2 coat protein” value (input ligand: none) was determined as 11.2 nM; the “apparent KD of MS2 coat protein” value under setting [1] turned out to be 16.9 nM; the “apparent KD of MS2 coat protein” value under setting [2] was found to be 13.3 nM; the “apparent KD of MS2 coat protein” value under setting [3] worked out at 12.7 nM.
For the sequence “AAAUGAGGAUCACCCAUGUAACAACGGGAAGGAGCGCCAAACAAGGCAGGUAGGUCGCCCACAUGAGGAUCACCCAUGUGUUGGG [Exclusion Arginine A GF 28]”, the “apparent KD of MS2 coat protein” value stood at 89 nM (input ligand: arginine 13.2 mM); 137 nM (input ligand: none); 105 nM under setting [1]; 166 nM under setting [2]; 177 nM under setting [3].
As for “AAAUGUGUAAAAGCUUUAACACCCUGAGAAGGAGCGCAAUAAAUUGCAGGUAGGUCGCUCAGACAUGAGGAUCACCCAUGUAACC [Atrabeor]”, the “apparent KD of MS2 coat protein” value is 45.7 nM (input ligand: arginine 13.2 mM); 39.6 nM (input ligand: none); 56.9 nM under setting [1]; 59.7 nM under setting [2]; 40 nM under setting [3].
As to “AACAGUUGGUCGGCCGCCACUACAUGAGGAUCACCCAUGUAGCGCGUUCUGCUCCAGGGCUCAUCUAGGACCGGGACACGAGUGU [Raa]”, the “apparent KD of MS2 coat protein” value runs as follows: (input ligand: arginine 13.2 mM) 12.2 nM; under setting [1], 21.4 nM; under setting [2], 14.5 nM.
As to “AACAUGAGGAUCACCCAUGUCCCAUGUGAACGAGGACCGGUACGGCCGCCACUCGAAUAAGGCGGCACAUGAGGAUCACCCACAU [AstrosSSTry#1]”, the “apparent KD of MS2 coat protein” value is 101 nM (input ligand: arginine 13.2 mM), 223 nM under setting [1] and 206 nM under setting [2].
For the sequence “AACAUGAGGAUCACCCAUGUCCCAUGUGAACGAGGACCGGUACGGCCGCCACUCGACUGAGGCGGCACAUGAGGAUCACCCACAU [whbob_SS_trypto A_2s12]”, the “apparent KD of MS2 coat protein” value is 151 nM (input ligand: arginine 13.2 mM), 207 nM under setting [1] and 269 nM under setting [2].
With “AACAUGAGGAUCACCCAUGUUGUAAGGGAAGGAGCGCCUAAUCAGGCAGGUAGGUCGCCCAACAUGAGGAUCACCCAUGUUGUAU [Exclusion Arginine A 2]”, the “apparent KD of MS2 coat protein” value is, setting by setting: (input ligand: arginine 13.2 mM) 38.9 nM; (input ligand: none) 75.3 nM; under setting [1], 89.2 nM; under setting [2], 66.9 nM; under setting [3], 76.5 nM.
With “AACAUGAGGAUCUUCCUUAAGUGAACUGAAGGAGCGCCAGAUAUGGCAGGUAGGUCGCAGCGAACAUGAGGAUCACCCAUGUUAA [Arg A Ex t3]”, the “apparent KD of MS2 coat protein” value is, setting by setting: (input ligand: arginine 13.2 mM) 38.1 nM; (input ligand: none) 29.4 nM; under setting [1], 33.1 nM; under setting [2], 56 nM; under setting [3], 53.7 nM.
For the sequence “AACCGAGGCUAUCCACAAAGAAAAUGUGAUACCAGAAUAAUUUUAUUCCCUUGGCAGCAUGACAUGAGGAUCACCCAUGUGUCUU [SSTheo A #5]”, the “apparent KD of MS2 coat protein” value reads like this: (input ligand: arginine 13.2 mM) 29.7 nM; under setting [1], 39.8 nM; under setting [3], 32.8 nM.
As to “AACGUAUACAGAAGGAGCGUGAUUUAUAUUACUCAUUCAUAUACAUGAGGAUCACCCAUGUCACAGGUAGGUCGCUGUAUUCGUA [JR_ExcArginiB_Sub021]”, the “apparent KD of MS2 coat protein” value reads like this: (input ligand: arginine 13.2 mM) 76 nM; (input ligand: none) 153 nM; under setting [1], 165 nM; under setting [2], 157 nM; under setting [3], 108 nM.
Turning to “AAGAACCAGACGGCCGCCACUGGCCAGACAGGGUUCAUGGAAACAUGAGGAUCACCCAUGUCUUCCAGGACCGGGUCUGAAGAGG [Esbiisin]”, the “apparent KD of MS2 coat protein” value stood at 8.61 nM (input ligand: arginine 13.2 mM); 8.56 nM (input ligand: none); 9.86 nM under setting [1]; 9.33 nM under setting [2]; 11.3 nM under setting [3].
As for “AAGACAUGAGGAUCACCCAUGUCGUGUGAACGAGGACCGGUACGGCCGCCACUCGUUUGAAAAUAAACGAAUGCGGCCUGGGAAA [Exclusion Tryp A GF1]”, the “apparent KD of MS2 coat protein” value by setting is: (input ligand: arginine 13.2 mM) 11.1 nM; under setting [1], 13.4 nM; under setting [2], 12.3 nM.
With “AAGACCAGGAGGUGAUCCUAACUGGUCCAACGAGGACCGGUACGGCCGCCACUCGAAUAAACAUGAGGAUCACCCAUGUAAUAAU [T''-M-T'-T-MS2]”, the “apparent KD of MS2 coat protein” value is, setting by setting: (input ligand: arginine 13.2 mM) 58.7 nM; under setting [1], 101 nM; under setting [2], 90.1 nM.
On to “AAGAUAAGUACUGAUACCAGAGACAUGAGGAUCACCCAUGUCAAAUAAUAAUACCUCAGACUCCCUUGGCAGCAGGAUAAAUGAG [Exclusion Theophylline B GF1]”, for which the “apparent KD of MS2 coat protein” value by setting is: (input ligand: arginine 13.2 mM) 10.9 nM; (input ligand: none) 11.7 nM; under setting [1], 19.9 nM; under setting [2], 19.2 nM; under setting [3], 12.1 nM.
For “AAGGACAUGAGGAUCACCCAUGUAGAGGAGCGAGGACCGGUACGGCCGCCACUCGGUGACAUUCGAUAAUGCCGAAUAAGACAUC [theeternabot_sameState_MS2_Trp_A_47]”, the “apparent KD of MS2 coat protein” value is 26.8 nM (input ligand: arginine 13.2 mM), 33.2 nM under setting [1] and 24.6 nM under setting [2].
For the sequence “AAGGGACAUGAGGAUCACCCAUGUACCGAAGGAGCGGCAGAGAUGCCAGGUAGGUCGCGGUACUUGCCGGGUCAUUCAUGCAAAA [Teanbe]”, the “apparent KD of MS2 coat protein” value is, setting by setting: (input ligand: arginine 13.2 mM) 16.4 nM; (input ligand: none) 18.8 nM; under setting [1], 23.5 nM; under setting [2], 21.9 nM; under setting [3], 21.8 nM.
The corresponding values for “AAGGGAGAGUCAGAUACCAGAGUAAGAUGGCAUGGUAAUUACAUGAGGAUCACCCAUGUAUUCCCUUGGCAGCUGACCCUACGUU [Exclusion Theophylline B GF 19]” are 17.6 nM, 14.1 nM, 16.7 nM, 16.6 nM and 12.8 nM.
With “AAUAACAUGAGGAUCACCCAUGUAAAAGAUACCAGAUGCAUGAUGAUCCCUUGGCAGCUUAAAACGCGAUUGGAAACAAUCGCGA [Mat - Same State Theophlline A - Mod of Eli - D13]”, the “apparent KD of MS2 coat protein” value is, setting by setting: (input ligand: arginine 13.2 mM) 46.1 nM; under setting [1], 93.4 nM; under setting [3], 30.8 nM.
Regarding “AAUAACAUGAGGAUCACCCAUGUAAGUAAACGAGGACCGGUACGGCCGCCACUCGAAUAAAUAAAGUACCGGUAAGAUCCAUAGA [Default title]”, the “apparent KD of MS2 coat protein” value was 17.9 nM (input ligand: arginine 13.2 mM), 25.9 nM under setting [1] and 22.5 nM under setting [2].
